{"source": "patent EP4671280A1", "about": "(Nanjing Leads Biolabs Co., Ltd., dated 2025)", "binders": {"B1": {"name": "Antibody 6-B9B6 (murine chimeric anti-Nectin-4 antibody) (antibody, human IgG1, kappa, V domains shown)", "VH": "EVHLVESGGGLVQPGGSLKLSCAASGFTFSSYGMSWVRQTPDKRLELVATINNIGGSTFPPDSVKGRFTVSRDNAKNTLYLQMSSLKSEDTAMYYCARAYDYVPFAYWGQGTLVTVSA", "VL": "DIQMTQSSSYLSVSLGGRVTITCKASDHINNWLAWYQQKPGNAPRLLISGATSLETGVPSRFSGSGSGKDYALSIASLQTEDVATYYCQQYWSTPFTFGSGTKLEIKR", "notes": "Mouse variable regions on human IgG1 / human kappa constant regions"}, "B2": {"name": "Antibody 23-H4F3 (murine chimeric anti-Nectin-4 antibody) (antibody, human IgG1, kappa, V domains shown)", "VH": "QVQLQQSGPELVKPGASVRISCKASGYTFTSYYIHWVKQRPGQGLEWIGWIYPGNVNTKYNEKFKGKATLTADKSSSTAYMQLISLTSEDSAVYFCARGVYYFDFWGQGTTLTVSS", "VL": "SIVMTQTPKFLLVSAGDRVTLTCKASQSVSNDVAWFQQKPGQSPKLLIYYALNRYTGVPDRFTGSGYGTDFTFTISTVQAEDLAVYFCQQDYSSPYTFGGGTKLEIKR", "notes": "Mouse variable regions on human IgG1 / human kappa constant regions, expressed in ExpiCHO-S cells; also called chimeric antibody 23-H4F3"}, "B3": {"name": "Enfortumab (antibody, human IgG1, kappa, V domains shown)", "VH": "EVQLVESGGGLVQPGGSLRLSCAASGFTFSSYNMNWVRQAPGKGLEWVSYISSSSSTIYYADSVKGRFTISRDNAKNSLSLQMNSLRDEDTAVYYCARAYYYGMDVWGQGTTVTVSS", "VL": "DIQMTQSPSSVSASVGDRVTITCRASQGISGWLAWYQQKPGKAPKFLIYAASTLQSGVPSRFSGSGSGTDFTLTISSLQPEDFATYYCQQANSFPPTFGGGTKVEIKR", "notes": "used as control antibody (naked antibody, no drug); also called control antibody enfortumab"}, "B4": {"name": "Antibody 32-A12C7 (murine chimeric anti-Nectin-4 antibody) (antibody, human IgG1, kappa, V domains shown)", "VH": "QVQLQQPGAELVMPGASVKMSCKASGYTFTDYWMHWVKQRPGQGLEWIGAIDTSDSYTSYNQKFKGKATLTVDESSSTAYMQLSSLTSEDSAVYYCARWGSTMITWGYGMDNWGQGTSVTVSS", "VL": "DIQMTQTTSSLSASLGDRVTISCRASQDINNYLNWYQQKPDGTVKLLIYYTSRLHSGVPSRFSGSGSGTDYSLTISNLEQEDIATYFCQQGNTLPWTFGGGTKLEIKR", "notes": "as for B1"}, "B5": {"name": "huH4F3-2 (antibody, human IgG1, kappa, V domains shown)", "VH": "QVQLVQSGAEVKKPGASVKVSCKASGYTFTSYYIHWVRQAPGQRLEWMGWIYPGNVNTKYSQKFQGRVTLTRDKSASTAYMELSSLRSEDTAVYYCARGVYYFDFWGQGTLVTVSS", "VL": "AIQMTQSPSSLSASVGDRVTITCRASQSVSNDVGWYQQKPGKAPKLLIYYALNRYTGVPSRFSGSGSGTDFTLTISSLQPEDFATYYCQQDYSSPYTFGQGTKLEIKR", "notes": "Humanized 23-H4F3, human IgG1/kappa"}, "B6": {"name": "huH4F3-4 (antibody, human IgG1, kappa, V domains shown)", "VH": "B5 VH", "VL": "DIVMTQSPDSLAVSLGERATINCKASQSVSNDVAWYQQKPGQPPKLLIYYALNRESGVPDRFSGSGSGTDFTLTISSLQAEDVAVYYCQQDYSSPYTFGQGTKLEIKR", "notes": "as for B5"}, "B7": {"name": "huH4F3-8 (antibody, human IgG1, kappa, V domains shown)", "VH": "B5 VH with Y95F", "VL": "B5 VL with Y36F, L73F", "notes": "as for B5"}, "B8": {"name": "huH4F3-6 (antibody, human IgG1, kappa, V domains shown)", "VH": "B5 VH with Y95F", "VL": "B5 VL with R54L, Y55Q, T56S", "notes": "as for B5"}, "B9": {"name": "huH4F3-5 (antibody, human IgG1, kappa, V domains shown)", "VH": "B5 VH", "VL": "B6 VL with A25S", "notes": "as for B5"}, "B10": {"name": "huH4F3-7 (antibody, human IgG1, kappa, V domains shown)", "VH": "B5 VH with Y95F", "VL": "B5 VL", "notes": "as for B5"}, "B11": {"name": "huH4F3-9 (antibody, human IgG1, kappa, V domains shown)", "VH": "B5 VH with Y95F", "VL": "B6 VL", "notes": "as for B5"}, "B12": {"name": "huH4F3-10 (antibody, human IgG1, kappa, V domains shown)", "VH": "B5 VH with Y95F", "VL": "B6 VL with A25S", "notes": "as for B5"}, "B13": {"name": "huH4F3-3 (antibody, human IgG1, kappa, V domains shown)", "VH": "B5 VH", "VL": "B5 VL with Y36F, L73F", "notes": "as for B5"}, "B14": {"name": "huH4F3-1 (antibody, human IgG1, kappa, V domains shown)", "VH": "B5 VH", "VL": "B5 VL with R54L, Y55Q, T56S", "notes": "as for B5"}}, "note": "Where a chain is given by its changes, count along the chain named.", "data": [{"biological_target": "T1, human Nectin-2 protein (Sino Biological, Cat. No. 10005-H08H) (human, UniProt Q92692 32-360)", "T1 sequence (looked up)": "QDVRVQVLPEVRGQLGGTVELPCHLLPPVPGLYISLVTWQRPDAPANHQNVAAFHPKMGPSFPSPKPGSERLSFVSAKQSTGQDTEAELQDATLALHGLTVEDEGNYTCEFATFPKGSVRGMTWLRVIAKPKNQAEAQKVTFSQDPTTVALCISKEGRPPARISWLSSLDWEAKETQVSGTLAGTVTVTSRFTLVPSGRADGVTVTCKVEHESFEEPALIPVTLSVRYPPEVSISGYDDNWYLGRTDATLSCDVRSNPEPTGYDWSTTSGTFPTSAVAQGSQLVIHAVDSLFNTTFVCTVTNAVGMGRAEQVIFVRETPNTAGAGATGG", "assay": "ELISA, Nectin family protein immobilised on plate", "values": [{"binder": "B1", "binding result": "no binding"}, {"binder": "B2", "binding result": "no binding"}]}, {"biological_target": "human Nectin-3 protein (Sino Biological, Cat. No. 10852-H08H) (human, UniProt Q9NQS3 58-404)", "sequence (Q9NQS3 58-404 limits assumed)": "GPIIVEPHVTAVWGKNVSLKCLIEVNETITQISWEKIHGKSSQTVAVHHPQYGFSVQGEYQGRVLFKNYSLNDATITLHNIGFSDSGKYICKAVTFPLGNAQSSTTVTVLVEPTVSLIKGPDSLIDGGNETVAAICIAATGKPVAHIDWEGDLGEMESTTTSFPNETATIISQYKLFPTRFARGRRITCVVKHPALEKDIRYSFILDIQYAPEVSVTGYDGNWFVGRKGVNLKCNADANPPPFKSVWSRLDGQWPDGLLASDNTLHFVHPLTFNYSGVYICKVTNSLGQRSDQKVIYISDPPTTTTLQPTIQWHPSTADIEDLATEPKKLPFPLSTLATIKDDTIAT", "assay": "ELISA, Nectin family protein immobilised on plate", "values": [{"binder": "B1", "binding result": "no binding"}, {"binder": "B2", "binding result": "no binding"}]}, {"biological_target": "T2, cynomolgus monkey Nectin-4 expressed on CHO-K1 cells (cynomolgus monkey, UniProt Q96NY8 32-370 (human entry), limits assumed)", "T2 construct": "also called CHO-K1/cynoNectin4; cells expressing the cynomolgus monkey Nectin-4 protein", "T2 chain": "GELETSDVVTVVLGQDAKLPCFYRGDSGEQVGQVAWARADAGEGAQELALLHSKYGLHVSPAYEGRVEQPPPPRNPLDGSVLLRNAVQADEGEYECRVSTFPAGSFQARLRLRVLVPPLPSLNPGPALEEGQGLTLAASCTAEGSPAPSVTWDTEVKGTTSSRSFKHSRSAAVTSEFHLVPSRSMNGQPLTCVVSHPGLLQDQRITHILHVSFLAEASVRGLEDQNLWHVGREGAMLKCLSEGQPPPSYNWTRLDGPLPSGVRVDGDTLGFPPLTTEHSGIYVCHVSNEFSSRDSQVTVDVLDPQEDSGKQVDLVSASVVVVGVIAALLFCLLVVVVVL", "assay": "flow cytometry on CHO-K1/cynoNectin4 cells", "units": {"EC50": "nM"}, "values": [{"binder": "B3", "binding result": "binds"}, {"binder": "B4", "EC50": 1.05}, {"binder": "B1", "EC50": 0.719}, {"binder": "B2", "EC50": 0.411}, {"binder": "B5", "binding result": "binds"}, {"binder": "B6", "binding result": "binds"}, {"binder": "B7", "binding result": "binds"}, {"binder": "B8", "binding result": "binds"}, {"binder": "B9", "binding result": "binds"}, {"binder": "B10", "binding result": "binds"}, {"binder": "B11", "binding result": "binds"}, {"binder": "B12", "binding result": "binds"}, {"binder": "B13", "binding result": "binds"}, {"binder": "B14", "binding result": "binds"}]}, {"biological_target": "T3, human Nectin-4 expressed on HT-1376 tumor cells (human, UniProt Q96NY8 32-510)", "T3 construct": "whole, on cells; also called HT-1376 cells expressing human Nectin-4", "T3 sequence (looked up)": "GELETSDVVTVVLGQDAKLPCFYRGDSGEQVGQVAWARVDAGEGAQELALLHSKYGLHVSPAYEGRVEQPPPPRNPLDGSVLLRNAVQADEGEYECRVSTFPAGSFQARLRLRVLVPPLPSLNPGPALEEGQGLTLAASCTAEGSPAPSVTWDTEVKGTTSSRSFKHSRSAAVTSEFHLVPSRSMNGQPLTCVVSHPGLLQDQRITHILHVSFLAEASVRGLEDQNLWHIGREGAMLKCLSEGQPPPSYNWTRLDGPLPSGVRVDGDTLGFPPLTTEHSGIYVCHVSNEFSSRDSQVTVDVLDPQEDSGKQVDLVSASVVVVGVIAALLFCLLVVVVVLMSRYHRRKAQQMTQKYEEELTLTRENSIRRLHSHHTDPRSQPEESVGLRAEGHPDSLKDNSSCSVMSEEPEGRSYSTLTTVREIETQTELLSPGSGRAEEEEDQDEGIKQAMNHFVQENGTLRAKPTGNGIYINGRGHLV", "assay": "flow cytometry on HT-1376 cells", "units": {"EC50": "nM"}, "values": [{"binder": "B3", "binding result": "binds"}, {"binder": "B4", "EC50": 0.3}, {"binder": "B1", "EC50": 0.249}, {"binder": "B2", "EC50": 0.064}, {"binder": "B5", "binding result": "binds"}, {"binder": "B6", "binding result": "binds"}, {"binder": "B7", "binding result": "binds"}, {"binder": "B8", "binding result": "binds"}, {"binder": "B9", "binding result": "binds"}, {"binder": "B10", "binding result": "binds"}, {"binder": "B11", "binding result": "binds"}, {"binder": "B12", "binding result": "binds"}, {"binder": "B13", "binding result": "binds"}, {"binder": "B14", "binding result": "binds"}]}]}
